# Laboratory results as given in patent US20170275666A1, “Methods for Preparing Rebaudioside I and Uses” (The Coca-Cola Company, priority 2014, published 2017).
# Assay: Directed evolution of UGT76G1, conversion of Rebaudioside D to Rebaudioside M (round 1)
# Format: biochemical
# Details: 0.5 mM Rebaudioside D, 2.5 mM UDP-Glucose, 100 μL fresh lysate, 30° C., pH 7.2
# Procedure, shortened: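 UGT76G1 variants carrying 3-5 designed mutations were expressed in E. coli BL21(DE3) (pET30a+, 44 h at 20° C) and lysed. Lysate was reacted with 0.5 mM Reb D, 2.5 mM UDP-glucose, 3 mM MgCl2 in 50 mM phosphate pH 7.2 at 30° C; HPLC-CAD sampling at 2, 4, 7, 24 h gave conversion and initial rate.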
Molecule,Conversion Reb D to Reb M after 24 h (%),initial rate (Reb M area/min)
"UGT76G1var48: UGT76G1 variant, mutations V394I_Y397E_Q432E (protein, UniProt Q6VAB4 1-458, looked up, variant V394I Y397E Q432E) UDP-glycosyltransferase 76G1: MENKTETTVRRRRRIILFPVPFQGHINPILQLANVLYSKGFSITIFHTNFNKPKTSNYPHFTFRFILDNDPQDERISNLPTHGPLAGMRIPIINEHGADELRRELELLMLASEEDEEVSCLITDALWYFAQSVADSLNLRRLVLMTSSLFNFHAHVSLPQFDELGYLDPDDKTRLEEQASGFPMLKVKDIKSAYSNWQILKEILGKMIKQTKASSGVIWNSFKELEESELETVIREIPAPSFLIPLPKHLTASSSSLLDHDRTVFQWLDQQPPSSVLYVSFGSTSEVDEKDFLEIARGLVDSKQSFLWVVRPGFVKGSTWVEPLPDGFLGERGRIVKWVPQQEVLAHGAIGAFWTHSGWNSTLESVCEGVPMIFSDFGLDQPLNARYMSDVLKIGVELENGWERGEIANAIRRVMVDEEGEYIRQNARVLKEKADVSLMKGGSSYESLESLVSYISSL",47.6,3.8E+07
"UGT76G1var52: UGT76G1 variant, mutations D301N_I373L_F377C_I407V (protein, UniProt Q6VAB4 1-458, looked up, variant D301N I373L F377C I407V) UDP-glycosyltransferase 76G1: MENKTETTVRRRRRIILFPVPFQGHINPILQLANVLYSKGFSITIFHTNFNKPKTSNYPHFTFRFILDNDPQDERISNLPTHGPLAGMRIPIINEHGADELRRELELLMLASEEDEEVSCLITDALWYFAQSVADSLNLRRLVLMTSSLFNFHAHVSLPQFDELGYLDPDDKTRLEEQASGFPMLKVKDIKSAYSNWQILKEILGKMIKQTKASSGVIWNSFKELEESELETVIREIPAPSFLIPLPKHLTASSSSLLDHDRTVFQWLDQQPPSSVLYVSFGSTSEVDEKDFLEIARGLVNSKQSFLWVVRPGFVKGSTWVEPLPDGFLGERGRIVKWVPQQEVLAHGAIGAFWTHSGWNSTLESVCEGVPMLFSDCGLDQPLNARYMSDVLKVGVYLENGWERGEVANAIRRVMVDEEGEYIRQNARVLKQKADVSLMKGGSSYESLESLVSYISSL",12.9,4.6E+06
"UGT76G1var53: UGT76G1 variant, mutations R334K_A352G_P382M_S389E (protein, UniProt Q6VAB4 1-458, looked up, variant R334K A352G P382M S389E) UDP-glycosyltransferase 76G1: MENKTETTVRRRRRIILFPVPFQGHINPILQLANVLYSKGFSITIFHTNFNKPKTSNYPHFTFRFILDNDPQDERISNLPTHGPLAGMRIPIINEHGADELRRELELLMLASEEDEEVSCLITDALWYFAQSVADSLNLRRLVLMTSSLFNFHAHVSLPQFDELGYLDPDDKTRLEEQASGFPMLKVKDIKSAYSNWQILKEILGKMIKQTKASSGVIWNSFKELEESELETVIREIPAPSFLIPLPKHLTASSSSLLDHDRTVFQWLDQQPPSSVLYVSFGSTSEVDEKDFLEIARGLVDSKQSFLWVVRPGFVKGSTWVEPLPDGFLGERGKIVKWVPQQEVLAHGAIGGFWTHSGWNSTLESVCEGVPMIFSDFGLDQMLNARYMEDVLKVGVYLENGWERGEIANAIRRVMVDEEGEYIRQNARVLKQKADVSLMKGGSSYESLESLVSYISSL",9.3,4.1E+06
"UGT76G1var51: UGT76G1 variant, mutations K303G_S357C_S389E_V396F (protein, UniProt Q6VAB4 1-458, looked up, variant K303G S357C S389E V396F) UDP-glycosyltransferase 76G1: MENKTETTVRRRRRIILFPVPFQGHINPILQLANVLYSKGFSITIFHTNFNKPKTSNYPHFTFRFILDNDPQDERISNLPTHGPLAGMRIPIINEHGADELRRELELLMLASEEDEEVSCLITDALWYFAQSVADSLNLRRLVLMTSSLFNFHAHVSLPQFDELGYLDPDDKTRLEEQASGFPMLKVKDIKSAYSNWQILKEILGKMIKQTKASSGVIWNSFKELEESELETVIREIPAPSFLIPLPKHLTASSSSLLDHDRTVFQWLDQQPPSSVLYVSFGSTSEVDEKDFLEIARGLVDSGQSFLWVVRPGFVKGSTWVEPLPDGFLGERGRIVKWVPQQEVLAHGAIGAFWTHCGWNSTLESVCEGVPMIFSDFGLDQPLNARYMEDVLKVGFYLENGWERGEIANAIRRVMVDEEGEYIRQNARVLKQKADVSLMKGGSSYESLESLVSYISSL",18.7,9.5E+06
"UGT76G1var56: UGT76G1 variant, mutations L246F_A352G_S357N_Q432E (protein, UniProt Q6VAB4 1-458, looked up, variant L246F A352G S357N Q432E) UDP-glycosyltransferase 76G1: MENKTETTVRRRRRIILFPVPFQGHINPILQLANVLYSKGFSITIFHTNFNKPKTSNYPHFTFRFILDNDPQDERISNLPTHGPLAGMRIPIINEHGADELRRELELLMLASEEDEEVSCLITDALWYFAQSVADSLNLRRLVLMTSSLFNFHAHVSLPQFDELGYLDPDDKTRLEEQASGFPMLKVKDIKSAYSNWQILKEILGKMIKQTKASSGVIWNSFKELEESELETVIREIPAPSFLIPFPKHLTASSSSLLDHDRTVFQWLDQQPPSSVLYVSFGSTSEVDEKDFLEIARGLVDSKQSFLWVVRPGFVKGSTWVEPLPDGFLGERGRIVKWVPQQEVLAHGAIGGFWTHNGWNSTLESVCEGVPMIFSDFGLDQPLNARYMSDVLKVGVYLENGWERGEIANAIRRVMVDEEGEYIRQNARVLKEKADVSLMKGGSSYESLESLVSYISSL",0.4,4.1E+04
"UGT76G1var50: UGT76G1 variant, mutations F22Y_V310I_S375M_F377C (protein, UniProt Q6VAB4 1-458, looked up, variant F22Y V310I S375M F377C) UDP-glycosyltransferase 76G1: MENKTETTVRRRRRIILFPVPYQGHINPILQLANVLYSKGFSITIFHTNFNKPKTSNYPHFTFRFILDNDPQDERISNLPTHGPLAGMRIPIINEHGADELRRELELLMLASEEDEEVSCLITDALWYFAQSVADSLNLRRLVLMTSSLFNFHAHVSLPQFDELGYLDPDDKTRLEEQASGFPMLKVKDIKSAYSNWQILKEILGKMIKQTKASSGVIWNSFKELEESELETVIREIPAPSFLIPLPKHLTASSSSLLDHDRTVFQWLDQQPPSSVLYVSFGSTSEVDEKDFLEIARGLVDSKQSFLWVIRPGFVKGSTWVEPLPDGFLGERGRIVKWVPQQEVLAHGAIGAFWTHSGWNSTLESVCEGVPMIFMDCGLDQPLNARYMSDVLKVGVYLENGWERGEIANAIRRVMVDEEGEYIRQNARVLKQKADVSLMKGGSSYESLESLVSYISSL",1.9,7.9E+05
"UGT76G1var57: UGT76G1 variant, mutations S241I_T263S_L379G_A385T (protein, UniProt Q6VAB4 1-458, looked up, variant S241I T263S L379G A385T) UDP-glycosyltransferase 76G1: MENKTETTVRRRRRIILFPVPFQGHINPILQLANVLYSKGFSITIFHTNFNKPKTSNYPHFTFRFILDNDPQDERISNLPTHGPLAGMRIPIINEHGADELRRELELLMLASEEDEEVSCLITDALWYFAQSVADSLNLRRLVLMTSSLFNFHAHVSLPQFDELGYLDPDDKTRLEEQASGFPMLKVKDIKSAYSNWQILKEILGKMIKQTKASSGVIWNSFKELEESELETVIREIPAPIFLIPLPKHLTASSSSLLDHDRSVFQWLDQQPPSSVLYVSFGSTSEVDEKDFLEIARGLVDSKQSFLWVVRPGFVKGSTWVEPLPDGFLGERGRIVKWVPQQEVLAHGAIGAFWTHSGWNSTLESVCEGVPMIFSDFGGDQPLNTRYMSDVLKVGVYLENGWERGEIANAIRRVMVDEEGEYIRQNARVLKQKADVSLMKGGSSYESLESLVSYISSL",0.8,1.5E+05
"UGT76G1var49: UGT76G1 variant, mutations F41L_Q266E_T284I_Y397Q (protein, UniProt Q6VAB4 1-458, looked up, variant F41L Q266E T284I Y397Q) UDP-glycosyltransferase 76G1: MENKTETTVRRRRRIILFPVPFQGHINPILQLANVLYSKGLSITIFHTNFNKPKTSNYPHFTFRFILDNDPQDERISNLPTHGPLAGMRIPIINEHGADELRRELELLMLASEEDEEVSCLITDALWYFAQSVADSLNLRRLVLMTSSLFNFHAHVSLPQFDELGYLDPDDKTRLEEQASGFPMLKVKDIKSAYSNWQILKEILGKMIKQTKASSGVIWNSFKELEESELETVIREIPAPSFLIPLPKHLTASSSSLLDHDRTVFEWLDQQPPSSVLYVSFGSISEVDEKDFLEIARGLVDSKQSFLWVVRPGFVKGSTWVEPLPDGFLGERGRIVKWVPQQEVLAHGAIGAFWTHSGWNSTLESVCEGVPMIFSDFGLDQPLNARYMSDVLKVGVQLENGWERGEIANAIRRVMVDEEGEYIRQNARVLKQKADVSLMKGGSSYESLESLVSYISSL",2.6,1.1E+06
"UGT76G1var55: UGT76G1 variant, mutations I295M_Q342E_V366I_N409R (protein, UniProt Q6VAB4 1-458, looked up, variant I295M Q342E V366I N409R) UDP-glycosyltransferase 76G1: MENKTETTVRRRRRIILFPVPFQGHINPILQLANVLYSKGFSITIFHTNFNKPKTSNYPHFTFRFILDNDPQDERISNLPTHGPLAGMRIPIINEHGADELRRELELLMLASEEDEEVSCLITDALWYFAQSVADSLNLRRLVLMTSSLFNFHAHVSLPQFDELGYLDPDDKTRLEEQASGFPMLKVKDIKSAYSNWQILKEILGKMIKQTKASSGVIWNSFKELEESELETVIREIPAPSFLIPLPKHLTASSSSLLDHDRTVFQWLDQQPPSSVLYVSFGSTSEVDEKDFLEMARGLVDSKQSFLWVVRPGFVKGSTWVEPLPDGFLGERGRIVKWVPQEEVLAHGAIGAFWTHSGWNSTLESICEGVPMIFSDFGLDQPLNARYMSDVLKVGVYLENGWERGEIARAIRRVMVDEEGEYIRQNARVLKQKADVSLMKGGSSYESLESLVSYISSL",1.0,2.2E+05
"UGT76G1var54: UGT76G1 variant, mutations E229A_T284L_R334K_Q342E (protein, UniProt Q6VAB4 1-458, looked up, variant E229A T284L R334K Q342E) UDP-glycosyltransferase 76G1: MENKTETTVRRRRRIILFPVPFQGHINPILQLANVLYSKGFSITIFHTNFNKPKTSNYPHFTFRFILDNDPQDERISNLPTHGPLAGMRIPIINEHGADELRRELELLMLASEEDEEVSCLITDALWYFAQSVADSLNLRRLVLMTSSLFNFHAHVSLPQFDELGYLDPDDKTRLEEQASGFPMLKVKDIKSAYSNWQILKEILGKMIKQTKASSGVIWNSFKELEESALETVIREIPAPSFLIPLPKHLTASSSSLLDHDRTVFQWLDQQPPSSVLYVSFGSLSEVDEKDFLEIARGLVDSKQSFLWVVRPGFVKGSTWVEPLPDGFLGERGKIVKWVPQEEVLAHGAIGAFWTHSGWNSTLESVCEGVPMIFSDFGLDQPLNARYMSDVLKVGVYLENGWERGEIANAIRRVMVDEEGEYIRQNARVLKQKADVSLMKGGSSYESLESLVSYISSL",0.7,4.3E+05
